Test results: paper PMC7794242

Molecular target: HCoV-229E S glycoprotein wild-type soluble ectodomain (residues 1-1116) with C-terminal GCN4 trimerization motif (HCoV-229E) (UniProt P15423)
Assay: cryo-EM structure; S trimer peak 2 (conformation 1, 3.21 A) and peak 3 (conformation 2, 3.55 A) samples at 0.75 mg/ml; C3 symmetry applied

HCoV-229E S glycoprotein wild-type soluble ectodomain (residues 1-1116) with C-terminal GCN4 trimerization motif (from UniProt P15423 16-1116) (domain or fragment)
stoichiometry N: 3
